Data on 14 molecules can be found in patent publication EP4775595A1 (Beijing Tuo Jie Biopharmaceutical Co. Ltd., dated 2026).

The target of experiment [1] is T1, hIGF-1R-ECD-avi-his (human IGF-1R extracellular region) (human, UniProt P08069 31-935).
T1 construct: It was captured on the chip through its His tag
Description: SPR (Biacore T200), antigen captured by anti-His antibody on CM5 chip, antibody as analyte.

For experiment [2], the target named is human IGF-1R on human non-small cell lung cancer cells (A549) (human, UniProt P08069 31-1367). Kind of experiment: cell-based or functional assay.
The target in experiment [3] is mouse IGF-1R on mouse myoblasts (C2C12) (mouse, UniProt Q60751 31-1373). Description: cell-based or functional assay.
Experiment [4] addresses T1, hIGF-1R-ECD-avi-his (human IGF-1R …). Kind of experiment: SPR (Biacore T200), antigen captured by anti-His antibody on CM5 chip, antibody as analyte. The source holds these as a separate data set.
For experiment [5], the target named is T2, mouse IGF-1R (Acro, Cat. IGR-M5223) (mouse, UniProt Q60751 31-936, limits assumed).
T2 construct: Bought reagent; also called murine IGF-1R
Described as above.

Where two headings read alike, the source gives them in different places.

One may read the Kd as a measure of binding affinity in units of concentration. Low values mean tighter binding, high ones weaker binding. For orientation: koff means a measure of how fast the partners let go of each other. A higher koff goes with fast dissociation. For orientation: kon means the second-order rate constant of association. Low readings indicate slow association, high ones fast association.

T2 sequence (Q60751 31-936 limits assumed): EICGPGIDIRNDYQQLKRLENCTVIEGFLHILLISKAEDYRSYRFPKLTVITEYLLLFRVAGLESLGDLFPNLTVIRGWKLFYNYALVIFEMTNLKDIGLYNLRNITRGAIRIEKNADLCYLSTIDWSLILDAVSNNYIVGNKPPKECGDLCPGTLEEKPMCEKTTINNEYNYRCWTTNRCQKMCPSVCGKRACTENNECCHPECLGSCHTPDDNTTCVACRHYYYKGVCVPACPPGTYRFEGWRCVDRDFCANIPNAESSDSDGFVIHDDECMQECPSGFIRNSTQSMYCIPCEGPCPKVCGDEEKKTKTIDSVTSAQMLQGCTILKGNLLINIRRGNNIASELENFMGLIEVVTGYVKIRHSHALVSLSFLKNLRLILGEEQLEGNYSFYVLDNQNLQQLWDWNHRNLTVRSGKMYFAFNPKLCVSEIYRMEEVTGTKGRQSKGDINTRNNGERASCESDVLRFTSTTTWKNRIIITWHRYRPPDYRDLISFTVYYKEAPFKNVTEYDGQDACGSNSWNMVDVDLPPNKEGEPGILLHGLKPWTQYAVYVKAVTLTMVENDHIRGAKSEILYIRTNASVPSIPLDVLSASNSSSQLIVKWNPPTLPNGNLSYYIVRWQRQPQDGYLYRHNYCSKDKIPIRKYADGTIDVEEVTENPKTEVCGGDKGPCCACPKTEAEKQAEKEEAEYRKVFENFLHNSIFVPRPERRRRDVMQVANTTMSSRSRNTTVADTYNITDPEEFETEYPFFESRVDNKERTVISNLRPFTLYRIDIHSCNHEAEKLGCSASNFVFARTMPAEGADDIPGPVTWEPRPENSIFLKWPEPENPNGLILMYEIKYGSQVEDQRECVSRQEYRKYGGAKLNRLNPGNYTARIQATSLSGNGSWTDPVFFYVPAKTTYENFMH
T1 sequence (P08069 other isoform, or with tags, fused parts or gaps limits assumed): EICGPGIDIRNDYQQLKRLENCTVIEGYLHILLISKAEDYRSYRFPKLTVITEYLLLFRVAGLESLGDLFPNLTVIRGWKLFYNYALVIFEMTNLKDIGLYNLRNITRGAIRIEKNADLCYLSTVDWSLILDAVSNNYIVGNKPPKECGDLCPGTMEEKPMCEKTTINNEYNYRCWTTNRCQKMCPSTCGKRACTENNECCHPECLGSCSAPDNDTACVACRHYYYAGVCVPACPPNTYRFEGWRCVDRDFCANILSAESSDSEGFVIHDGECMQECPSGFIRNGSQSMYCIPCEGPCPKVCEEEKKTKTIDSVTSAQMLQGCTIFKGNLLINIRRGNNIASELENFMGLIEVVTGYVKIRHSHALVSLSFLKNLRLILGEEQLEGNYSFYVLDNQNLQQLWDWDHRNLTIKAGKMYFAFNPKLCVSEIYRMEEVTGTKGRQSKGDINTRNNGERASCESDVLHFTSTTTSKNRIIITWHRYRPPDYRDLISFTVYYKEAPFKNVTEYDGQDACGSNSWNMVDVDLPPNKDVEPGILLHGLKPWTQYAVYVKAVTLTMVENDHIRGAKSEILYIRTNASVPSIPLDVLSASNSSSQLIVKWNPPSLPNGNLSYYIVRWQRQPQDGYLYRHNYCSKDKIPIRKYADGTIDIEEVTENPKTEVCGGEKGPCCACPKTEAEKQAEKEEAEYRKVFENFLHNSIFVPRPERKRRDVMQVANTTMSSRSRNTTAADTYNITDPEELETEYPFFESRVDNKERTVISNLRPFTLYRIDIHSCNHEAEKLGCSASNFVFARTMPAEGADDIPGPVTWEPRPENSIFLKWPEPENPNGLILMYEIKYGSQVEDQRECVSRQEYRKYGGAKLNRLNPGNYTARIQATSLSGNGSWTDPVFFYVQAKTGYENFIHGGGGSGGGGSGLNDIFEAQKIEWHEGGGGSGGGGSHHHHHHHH
human IGF-1R on human non-small cell lung cancer cells (A549), sequence (P08069 31-1367): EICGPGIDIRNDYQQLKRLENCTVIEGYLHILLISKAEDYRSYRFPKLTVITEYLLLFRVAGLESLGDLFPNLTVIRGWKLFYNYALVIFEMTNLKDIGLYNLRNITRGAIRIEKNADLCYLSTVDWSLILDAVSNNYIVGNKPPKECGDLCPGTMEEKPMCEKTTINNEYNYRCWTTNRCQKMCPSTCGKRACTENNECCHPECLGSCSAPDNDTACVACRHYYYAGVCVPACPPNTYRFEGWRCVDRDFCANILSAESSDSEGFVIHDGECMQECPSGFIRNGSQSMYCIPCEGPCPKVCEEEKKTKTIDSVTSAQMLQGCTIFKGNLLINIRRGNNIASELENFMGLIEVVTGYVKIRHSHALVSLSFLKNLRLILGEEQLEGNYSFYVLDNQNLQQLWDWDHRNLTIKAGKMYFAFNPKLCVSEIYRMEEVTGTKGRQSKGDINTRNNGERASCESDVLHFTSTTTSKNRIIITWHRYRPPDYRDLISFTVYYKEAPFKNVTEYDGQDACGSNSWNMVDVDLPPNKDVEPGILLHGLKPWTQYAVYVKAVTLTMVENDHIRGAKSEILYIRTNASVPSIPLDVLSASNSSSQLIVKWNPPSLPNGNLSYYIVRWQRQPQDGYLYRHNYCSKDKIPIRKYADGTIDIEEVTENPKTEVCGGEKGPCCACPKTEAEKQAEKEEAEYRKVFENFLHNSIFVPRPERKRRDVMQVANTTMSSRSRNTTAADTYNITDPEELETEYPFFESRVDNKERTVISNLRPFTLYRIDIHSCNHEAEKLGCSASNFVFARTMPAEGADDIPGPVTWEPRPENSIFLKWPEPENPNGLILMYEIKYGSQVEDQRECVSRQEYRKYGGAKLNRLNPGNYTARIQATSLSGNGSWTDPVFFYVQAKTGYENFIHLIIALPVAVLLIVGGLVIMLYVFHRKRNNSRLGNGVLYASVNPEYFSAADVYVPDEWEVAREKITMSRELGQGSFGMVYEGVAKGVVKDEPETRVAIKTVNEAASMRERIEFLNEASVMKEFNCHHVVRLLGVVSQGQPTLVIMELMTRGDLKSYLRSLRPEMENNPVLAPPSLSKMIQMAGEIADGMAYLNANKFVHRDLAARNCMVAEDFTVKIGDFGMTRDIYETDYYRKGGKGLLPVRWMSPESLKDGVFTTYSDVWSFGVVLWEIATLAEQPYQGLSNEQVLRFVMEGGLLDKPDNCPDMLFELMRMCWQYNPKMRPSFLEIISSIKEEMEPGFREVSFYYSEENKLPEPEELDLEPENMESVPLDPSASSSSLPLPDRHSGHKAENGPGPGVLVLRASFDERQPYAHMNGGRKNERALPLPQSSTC
mouse IGF-1R on mouse myoblasts (C2C12), sequence (Q60751 31-1373): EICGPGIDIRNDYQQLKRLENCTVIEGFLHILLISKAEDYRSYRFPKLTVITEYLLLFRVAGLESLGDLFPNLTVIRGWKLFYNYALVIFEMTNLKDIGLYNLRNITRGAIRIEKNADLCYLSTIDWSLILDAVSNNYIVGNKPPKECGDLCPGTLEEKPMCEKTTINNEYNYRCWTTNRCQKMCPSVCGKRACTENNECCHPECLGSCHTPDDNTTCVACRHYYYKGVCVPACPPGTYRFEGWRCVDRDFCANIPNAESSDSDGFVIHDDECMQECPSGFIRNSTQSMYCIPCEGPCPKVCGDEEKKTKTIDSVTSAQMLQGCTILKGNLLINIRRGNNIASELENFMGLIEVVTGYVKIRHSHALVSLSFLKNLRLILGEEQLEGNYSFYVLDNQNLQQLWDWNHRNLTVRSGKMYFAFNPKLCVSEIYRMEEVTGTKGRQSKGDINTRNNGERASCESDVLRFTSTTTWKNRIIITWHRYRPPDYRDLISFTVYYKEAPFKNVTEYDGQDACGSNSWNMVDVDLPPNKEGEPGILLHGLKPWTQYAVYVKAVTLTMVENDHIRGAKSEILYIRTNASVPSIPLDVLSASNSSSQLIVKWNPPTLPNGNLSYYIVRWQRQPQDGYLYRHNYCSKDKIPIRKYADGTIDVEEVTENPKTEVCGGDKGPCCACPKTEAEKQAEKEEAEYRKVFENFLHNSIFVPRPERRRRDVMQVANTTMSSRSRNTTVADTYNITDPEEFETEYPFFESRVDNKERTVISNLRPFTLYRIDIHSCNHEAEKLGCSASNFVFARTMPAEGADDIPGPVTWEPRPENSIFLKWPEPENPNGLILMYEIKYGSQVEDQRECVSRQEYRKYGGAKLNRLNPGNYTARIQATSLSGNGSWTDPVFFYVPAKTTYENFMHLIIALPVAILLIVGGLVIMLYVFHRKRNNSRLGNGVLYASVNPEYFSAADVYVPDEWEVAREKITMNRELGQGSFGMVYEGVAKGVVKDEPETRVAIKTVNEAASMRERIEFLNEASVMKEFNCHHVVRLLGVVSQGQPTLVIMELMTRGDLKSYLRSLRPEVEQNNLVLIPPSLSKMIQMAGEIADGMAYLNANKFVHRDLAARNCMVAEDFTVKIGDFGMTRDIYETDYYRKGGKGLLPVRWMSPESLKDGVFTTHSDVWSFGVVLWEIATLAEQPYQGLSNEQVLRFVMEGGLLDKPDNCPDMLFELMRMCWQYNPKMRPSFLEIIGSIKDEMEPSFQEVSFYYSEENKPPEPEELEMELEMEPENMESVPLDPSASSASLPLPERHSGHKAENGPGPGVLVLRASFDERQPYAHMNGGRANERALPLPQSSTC

B1: IG05-hu1 (VHH)
VHH: EVQLVESGGGLVQPGGSLRLSCTASGLTFGTFGMAWFRQAPGKEREGVSAISASSGRTYYADSVKGRFTISRDNSKNTLYLQMNSLRAEDTAVYYCAVRSKNGAGYGFWYEARLYGYWGQGTLVTVSS
notes: Humanized IG05; also called IG05-hul
With B1, in experiment [1], binding was put at a Kd of 0.395 nM, the koff was 0.00072 s⁻¹ and the kon stood at 1.82e+06 M⁻¹ s⁻¹.

B2: IG05-hu5 (VHH)
VHH: EVQLVESGGGLVQPGGSLRLSCAASGFTFGTFGMAWFRQAPGKEREGVSAISASSGRTYYADSVKGRFTISRDNSKNTLYLQMNSLRAEDTAVYYCAVRSKNGAGYGFWYEARLYGYWGQGTLVTVSS
notes: Humanized IG05
B2: in experiment [1], the Kd was determined as 0.258 nM, the koff was determined as 0.000474 s⁻¹ and the on-rate (kon) amounted to 1.83e+06 M⁻¹ s⁻¹.

B3: IG05-hu4 (VHH)
VHH: EVQLVESGGGLVQPGGSLRLSCAASGLTFGTFGMAWFRQAPGKEREGVSAISASSGRTYYADSVKGRFTISRDNSKNTLYLQMNSLRAEDTAVYYCAVRSKNGAGYGFWYEARLYGYWGQGTLVTVSS
notes: Humanized IG05
In experiment [1], B3 showed a Kd of 0.507 nM, a koff of 0.000882 s⁻¹ and a kon of 1.74e+06 M⁻¹ s⁻¹.

B4: IG05 (VHH)
VHH: QVQLVESGGGLVQAGGSLRLSCTASGLTFGTFGMAWFRQAPGKEREGVSAISASSGRTYYADSVKGRFTISRDNAKNTLYLQMDALKPEDTAMYYCAVRSKNGAGYGFWYEARLYGYWGQGTQVTVSS
notes: Camel single-domain antibody against IGF-1R
As to B4, in experiment [1], binding was put at a Kd of 0.346 nM, the koff stood at 0.000749 s⁻¹ and the on-rate constant (kon) was 2.17e+06 M⁻¹ s⁻¹.

B5: IG05-hu3 (VHH)
VHH: EVQLVESGGGLVQPGGSLRLSCTASGLTFGTFGMAWFRQAPGKEREGVSAISASSGRTYYADSVKGRFTISRDNSKNTLYLQMDALRAEDTAVYYCAVRSKNGAGYGFWYEARLYGYWGQGTLVTVSS
notes: Humanized IG05
B5: in experiment [1], the Kd came to 0.403 nM, the koff came to 0.000723 s⁻¹ and the kon was found to be 1.79e+06 M⁻¹ s⁻¹.

B6: IG05-hu2 (VHH)
VHH: EVQLVESGGGLVQPGGSLRLSCTASGLTFGTFGMAWFRQAPGKEREGVSAISASSGRTYYADSVKGRFTISRDNAKNTLYLQMNSLRAEDTAVYYCAVRSKNGAGYGFWYEARLYGYWGQGTLVTVSS
notes: Humanized IG05
In the case of B6, in experiment [1], the Kd stood at 0.361 nM, the koff came to 0.000772 s⁻¹ and the kon came out at 2.14e+06 M⁻¹ s⁻¹.

B7: IG06-hu4 (VHH)
VHH: EVQLVESGGGLVQPGGSLRLSCAASRYIVSTRCLGWVRQAPGKEREEVSTIDTAGRPTYADSVKGRFTISRDGAKNFLYLQMNSLRAEDTAVYYCAAASSDNCRYFPSNLGQGTLVTVSS
With B7, in experiment [1], the Kd was 4 nM, the koff amounted to 0.00299 s⁻¹ and the kon stood at 748000 M⁻¹ s⁻¹.

B8: IG06 (VHH)
VHH: QVQLVESGGGSVQAGGSLRLSCAASRYIVSTRCLGWVRQAPGNEREEIATIDTAGRPTYADSVKGRFTISKDGAKNFLYLQMNSLKPEDTAMYYCAAASSDNCRYFPSNLGQGTQVTVSS
notes: as for B4
B8: in experiment [1], binding was characterised by a dissociation constant (Kd) of 0.889 nM, the koff is 0.000675 s⁻¹ and the kon worked out at 759000 M⁻¹ s⁻¹.

B9: IG06-hu2 (VHH)
VHH: EVQLVESGGGLVQPGGSLRLSCAASRYIVSTRCLGWVRQAPGKEREEVSTIDTAGRPTYADSVKGRFTISRDNSKNFLYLQMNSLRAEDTAVYYCAAASSDNCRYFPSNWGQGTLVTVSS
In experiment [1], B9 displayed a dissociation constant (Kd) of 34.7 nM, a koff of 0.0277 s⁻¹ and a kon of 800000 M⁻¹ s⁻¹.

B10: IG06-hu6 (VHH)
VHH: EVQLVESGGGLVQPGGSLRLSCAASRYIVSTRCLGWVRQAPGNEREEVSTIDTAGRPTYADSVKGRFTISRDNSKNTLYLQMNSLRAEDTAVYYCAAASSDNCRYFPSNLGQGTLVTVSS
As to B10, in experiment [1], the Kd worked out at 1.55 nM, the koff turned out to be 0.00226 s⁻¹ and the kon is 1.46e+06 M⁻¹ s⁻¹.

B11: IG06-hu3 (VHH)
VHH: EVQLVESGGGLVQPGGSLRLSCAASRYIVSTRCLGWVRQAPGKEREEVSTIDTAGRPTYADSVKGRFTISRDGAKNFLYLQMNSLRAEDTAVYYCAAASSDNCRYFPSNWGQGTLVTVSS
In experiment [1], B11 displayed a Kd of 27.3 nM, a koff of 0.0231 s⁻¹ and a kon of 847000 M⁻¹ s⁻¹.

B12: IG06-hu1 (VHH)
VHH: EVQLVESGGGLVQPGGSLRLSCAASRYIVSTRCLGWVRQAPGKEREEVSTIDTAGRPTYADSVKGRFTISRDNSKNTLYLQMNSLRAEDTAVYYCAAASSDNCRYFPSNWGQGTLVTVSS
In experiment [1], B12 showed a Kd of 29.3 nM, an off-rate constant (koff) of 0.0265 s⁻¹ and a kon of 905000 M⁻¹ s⁻¹.

B13: IG06-hu5 (VHH)
VHH: EVQLVESGGGLVQPGGSLRLSCAASRYIVSTRCLGWVRQAPGKEREEIATIDTAGRPTYADSVKGRFTISRDGAKNFLYLQMNSLRAEDTAVYYCAAASSDNCRYFPSNLGQGTLVTVSS
On to B13, for which, in experiment [1], the Kd turned out to be 2.67 nM, the koff came to 0.0024 s⁻¹ and the kon stood at 899000 M⁻¹ s⁻¹.

B14: PHP1003 (Suzhou PRO-HEAL, CN113512116) (antibody, V domains shown)
VH: QVQLQESGPGLVKPSGTLSLTCAVSGGSISSSNWWSWVRQPPGKGLEWIGEIYHSGSTNYNPSLKSRVTISVDKSKNQFSLKLSSVTAADTAVYYCARWTGRTDAFDIWGQGTMVTVSS
VL: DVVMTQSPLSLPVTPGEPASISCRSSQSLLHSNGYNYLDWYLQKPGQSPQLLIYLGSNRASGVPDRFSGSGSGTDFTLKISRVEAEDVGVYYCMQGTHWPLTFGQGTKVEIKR
notes: Positive control anti-IGF-1R antibody
B14: the “IC50 (nM), inhibition of IGF1-induced pAKT signaling in A549 cells” value in experiment [2] amounted to 33.6 nM. Besides, the “IC50 (nM), inhibition of IGF1-induced pAKT signaling in C2C12 cells” value in experiment [3] was found to be 4240 nM. In experiment [4], this molecule yielded a Kd of 0.262 nM, a koff of 0.00107 s⁻¹ and a kon of 4.1e+06 M⁻¹ s⁻¹. In addition, in experiment [5], binding was characterised by a dissociation constant (Kd) of 0.337 nM, the koff was 0.00112 s⁻¹ and the kon stood at 3.32e+06 M⁻¹ s⁻¹.
